# Paper PMC314469, “Protein Interaction Networks by Proteome Peptide Scanning” (PLoS Biology, 2004)
# B1: YGR162W 364-377 (peptide)
# chain: ATTPAIPTKSDEAE
# B2: YCR023C 384-397 (peptide)
# chain: AVDPENPKKLASKF
# B3: YHL040C 345-358 (peptide)
# chain: ARDPILPYRLVKDR
# B4: YDR403W 216-229 (peptide)
# chain: SILPAFPSKSSNEQ
# B5: YKR054C 2535-2548 (peptide)
# chain: SNPPTDPGRIPMSE
# B6: YKR061W 225-238 (peptide)
# chain: SDFPYDPFKVMRQN
# B7: YAR002W 11-24 (peptide)
# chain: ATVPSAPYRKQIIS
# B8: YLR330W 177-190 (peptide)
# chain: SLGPLDPLKEISDL
# B9: YPL202C 314-327 (peptide)
# chain: SILPSTPTRPLSQS
# B10: YNL140C 149-162 (peptide)
# chain: AVLPIEPMKIKGTT
# B11: YIL078W 68-81 (peptide)
# chain: ASMPRVPLKIVLKD
# B12: YIL108W 577-590 (peptide)
# chain: ASKPSVPPRNYFSK
# B13: YER025W 174-187 (peptide)
# chain: SQRPGSPGRYKLVR
# B14: YJL139C 225-238 (peptide)
# chain: SDFPYDPFRVMRLK
# B15: YBL095W 165-178 (peptide)
# chain: SGFPLLPSKRGVTA
# B16: YLR318W 152-165 (peptide)
# chain: SNEPHLPPKWVQRS
# B17: YJL036W 96-109 (peptide)
# chain: SIIPPLPDKKVFQY
# B18: YAR019C 585-598 (peptide)
# chain: ATRPSSPMRHKSIS
# B19: YLR244C 90-103 (peptide)
# chain: ASYPLTPRRYVPED
# Biological target: T1, Boi2 SH3 (BOI2_YEAST), P39969
# T1 chain: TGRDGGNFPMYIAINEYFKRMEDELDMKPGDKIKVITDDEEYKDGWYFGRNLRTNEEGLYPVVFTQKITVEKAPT
# Test: SPOT array
row,Binder,"normalised SPOT signal, Boehringer light units (BLU); mean over the file's lines of this peptide"
1,B1,42.2
2,B2,53.1
3,B3,46.6
4,B4,25.1
5,B5,56.4
6,B6,40.1
7,B7,53.7
8,B8,42.4
9,B9,19.1
10,B10,37
11,B11,282
12,B12,44.5
13,B13,51.1
14,B14,33.6
15,B15,22
16,B16,9.7
17,B17,49
18,B18,302
19,B19,23400

# Biological target: T2, Boi1 SH3 (BOI1_YEAST), P38041
# T2 chain: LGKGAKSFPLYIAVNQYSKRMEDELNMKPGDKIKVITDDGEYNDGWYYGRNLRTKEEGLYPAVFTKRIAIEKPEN
# Test: SPOT array
row,Binder,"normalised SPOT signal, Boehringer light units (BLU); mean over the file's lines of this peptide"
1,B1,70.8
2,B2,74.5
3,B3,322
4,B4,131
5,B5,23.4
6,B6,41.4
7,B7,30.5
8,B8,103
9,B9,44.6
10,B10,98.3
11,B11,101
12,B12,1130
13,B13,123
14,B14,330
15,B15,100
16,B16,120
17,B17,40.2
18,B18,168
19,B19,2830

# Biological target: T3, Rvs167 SH3 (RV167_YEAST), P39743
# T3 chain: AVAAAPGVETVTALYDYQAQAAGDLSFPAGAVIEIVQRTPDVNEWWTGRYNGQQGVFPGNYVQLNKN
# Test: SPOT array
row,Binder,"normalised SPOT signal, Boehringer light units (BLU); mean over the file's lines of this peptide"
1,B1,86.1
2,B2,5.3
3,B3,437
4,B4,68.1
5,B5,40.5
6,B6,11.8
7,B7,145
8,B8,8.3
9,B9,196
10,B10,39
11,B11,581
12,B12,3860
13,B13,94
14,B14,42
15,B15,354
16,B16,4.1
17,B17,22.3
18,B18,1180
19,B19,1380

# Biological target: T4, Yhr016c SH3 (YSC84_YEAST), P32793
# T4 chain: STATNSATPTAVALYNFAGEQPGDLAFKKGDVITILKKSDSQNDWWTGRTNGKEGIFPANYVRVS
# Test: SPOT array
row,Binder,"normalised SPOT signal, Boehringer light units (BLU); mean over the file's lines of this peptide"
1,B1,0
2,B2,42.7
3,B3,4220
4,B4,108
5,B5,259
6,B6,119
7,B7,718
8,B8,206
9,B9,20300
10,B10,191
11,B11,690
12,B12,9380
13,B13,202
14,B14,245
15,B15,314
16,B16,84
17,B17,174
18,B18,1730
19,B19,4120

# Biological target: T5, Yfr024 SH3 (LSB3_YEAST), P43603
# T5 chain: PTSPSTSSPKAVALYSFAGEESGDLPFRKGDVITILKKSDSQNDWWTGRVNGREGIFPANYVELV
# Test: SPOT array
row,Binder,"normalised SPOT signal, Boehringer light units (BLU); mean over the file's lines of this peptide"
1,B1,166
2,B2,0
3,B3,16800
4,B4,441
5,B5,22.9
6,B6,33.2
7,B7,1890
8,B8,13.6
9,B9,20300
10,B10,605
11,B11,6880
12,B12,20100
13,B13,634
14,B14,231
15,B15,4190
16,B16,2740
17,B17,6960
18,B18,6110
19,B19,6950
